# T1: human GITR (human, UniProt Q9Y5U5 26-161, limits assumed)
# T1 construct: also called TNFRSF18; CD357
# T1 sequence: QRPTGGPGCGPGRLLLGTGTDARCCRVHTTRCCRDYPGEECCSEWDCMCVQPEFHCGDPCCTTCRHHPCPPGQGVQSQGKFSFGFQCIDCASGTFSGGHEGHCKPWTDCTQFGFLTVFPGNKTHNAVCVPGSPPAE
# T2: human OX40 on the cell surface (JD/OX40 cells; OX40-expressing T cells) (human, UniProt P43489 29-277)
# T2 sequence: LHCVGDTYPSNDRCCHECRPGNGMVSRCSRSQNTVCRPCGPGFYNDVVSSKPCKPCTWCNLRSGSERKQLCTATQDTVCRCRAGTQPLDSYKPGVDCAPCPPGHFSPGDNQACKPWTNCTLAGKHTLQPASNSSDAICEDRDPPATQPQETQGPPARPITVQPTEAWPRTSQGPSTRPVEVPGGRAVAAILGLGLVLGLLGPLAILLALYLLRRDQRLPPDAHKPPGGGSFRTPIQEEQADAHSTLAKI
# T3: human GITR on the cell surface (JD/GITR cells; GITR-expressing T cells) (human, UniProt Q9Y5U5 26-241)
# T3 sequence: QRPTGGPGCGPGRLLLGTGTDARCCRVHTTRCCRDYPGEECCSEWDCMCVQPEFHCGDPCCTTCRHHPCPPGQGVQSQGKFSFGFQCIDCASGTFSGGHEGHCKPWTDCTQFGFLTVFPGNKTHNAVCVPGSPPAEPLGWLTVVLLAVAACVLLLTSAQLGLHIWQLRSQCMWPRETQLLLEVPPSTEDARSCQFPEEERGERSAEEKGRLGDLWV
# B1: HuPRO5-IgG1.AA (antibody, V domains shown)
# VH: QVQLQESGPGLVKPSQTLSLTCTVSGDSISSGYWNWIRQPPGKGLEYMGYISYTGSTYSNPSLKSRVTISRDTSKNQFSLKLSSVTAADTAVYYCARSQNWERAWFAYWGQGTLVTVSS
# VL: DIQMTQSPSSLSASVGDRVTITCSASSSVSYMHWYQQKPGKAPKLWIYDTSKLASGVPSRFSGSGSGTDFTLTISSLQPEDFATYYCFQGSGYPFTFGGGTKVEIKR
# notes: also called humanized PRO5; Anti-PD-L1 #5
# B2: BS853 (bispecific antibody, human IgG1, kappa, L234A L235A)
# heavy: not shown
# light: EIVLTQSPATLSLSPGERATLSCSASSSVSYMHWYQQKPGQAPRPWIYDTSNLASGFPARFSGSGSGTDFTLTISSLEPEDFAVYYCHQRSSYPWTFGGGTKVEIKRTVAAPSVFIFPPSDEQLKSGTASVVCLLNNFYPREAKVQWKVDNALQSGNSQESVTEQDSKDSTYSLSSTLTLSKADYEKHKVYACEVTHQGLSSPVTKSFNRGEC
# notes: Transiently expressed in HEK293 cells; Cysteines at position 44 of VH and 100 of VL of the anti-GITR scFv; also called modified bispecific antibody encoded in pBS853; BS809 with disulfide-linked anti-GITR scFv
# B3: BS813 (bispecific antibody, human IgG1, kappa, L234A L235A)
# heavy: not shown
# light: B2 light
# B4: BS809 (bispecific antibody, human IgG1, kappa, L234A L235A)
# heavy: not shown
# light: B2 light
# B5: HuACS2-IgG1.AA (antibody, V domains shown)
# VH: QVQLVQSGAEVKKPGSSVKVSCKASGYTFTSYWLHWVRQAPGQGLEWIGRIDPNSGDTKYNEKFKSRATITVDKSTSTAYMELSSLRSEDTAVYYCARYYYGRSYFDYWGQGTTVTVSS
# VL: IVLTQSPATLSLSPGERATLSCSASSSVSYMHWYQQKPGQAPRRWIYDTSKLASGVPARFSGSGSGTDYTLTISSLEPEDFAVYYCQQWSSNPLTFGGGTKVEIKR
# B6: HuPRO2-IgG1.AA (antibody, V domains shown)
# VH: VQLVQSGAEVKKPGSSVKVSCKASGYTFTSYGINWVRQAPGQGLEWIGYIYPGSGGPVYNQKFKGRVTLTADKSTSTAYMELSSLRSEDTAVYYCARENYRYWYFDVWGQGTTVTVSS
# VL: DIQLTQSPSFLSASVGDRVTITCSASSSVNYMHWFQQKPGKAPKLWIYSTSNLASGVPSRFSGSGSGTEFTLTISSLQPEDFATYYCQQRSSYPLTFGGGTKVEIKR
# notes: Humanized IgG1/kappa with L234A/L235A; also called humanized PRO2; Anti-PD-L1 #2
# B7: BS828 (bispecific antibody, human IgG1, kappa, L234A L235A)
# heavy: not shown
# light: DIQMTQSPSSLSASVGDRVTITCRASESVDNYGISFMNWFQQKPGGAPKLLIYAASNQGSGVPSRFSGSGSGTDFTLTISSLQPDDFATYYCQQSKEVPWTFGQGTKVEIKRTVAAPSVFIFPPSDEQLKSGTASVVCLLNNFYPREAKVQWKVDNALQSGNSQESVTEQDSKDSTYSLSSTLTLSKADYEKHKVYACEVTHQGLSSPVTKSFNRGEC
# B8: BS824 (bispecific antibody, human IgG1, kappa, L234A L235A)
# heavy: not shown
# light: B7 light
# B9: HuOHX14DS-IgG1.AA (antibody, V domains shown)
# VH: QVQLVQSGAEVKKPGSSVKVSCKASGYTFTSYIMHWVRQAPGQGLEWIGYINPYNSGTKYNEKFKGRVTITSDKSTSTAYMELSSLRSEDTAVYYCAHYYGSTFTMDYWGQGTTVTVSS
# VL: DIQMTQSPSSLSASVGDRVTITCRASQDIRTYLNWYQQKPGKVPKLLIYYTSRLHSGVPSRFSGSGSGTDYTLTISSLQPEDVATYYCQQGNTLPWTFGGGTKVEIKR
# B10: HuPRO1-IgG1.AA (antibody, V domains shown)
# VH: QVQLVQSGAEVKKPGSSVKVSCKASGFTFSSSYISWVRQAPGQGLEWIAWIYAGTGGTSYNQKFTGRATITVDESTSTAYMELSSLRSEDTAVYYCARHEGVYWYFDVWGQGTTVTVSS
# VL: EIVLTQSPATLSLSPGERATLSCSASSSVSYMHWYQQKPGQAPRPWIYDTSNLASGFPARFSGSGSGTDFTLTISSLEPEDFAVYYCHQRSSYPWTFGGGTKVEIKR
# notes: Humanized IgG1/kappa with L234A/L235A; Heavy chain built from VH and the constant exons of pHuM195-IgG1; also called humanized PRO1; anti-PD-L1
# B11: BS841 (bispecific antibody, human IgG1, kappa, L234A L235A)
# heavy: not shown
# light: DIQLTQSPSFLSASVGDRVTITCSASSSVNYMHWFQQKPGKAPKLWIYSTSNLASGVPSRFSGSGSGTEFTLTISSLQPEDFATYYCQQRSSYPLTFGGGTKVEIKRTVAAPSVFIFPPSDEQLKSGTASVVCLLNNFYPREAKVQWKVDNALQSGNSQESVTEQDSKDSTYSLSSTLTLSKADYEKHKVYACEVTHQGLSSPVTKSFNRGEC
# B12: HuM195-IgG1 (antibody, V domains shown)
# VH: QVQLVQSGAEVKKPGSSVKVSCKASGYTFTDYNMHWVRQAPGQGLEWIGYIYPYNGGTGYNQKFKSKATITADESTNTAYMELSSLRSEDTAVYYCARGRPAMDYWGQGTLVTVSS
# VL: DIQMTQSPSSLSASVGDRVTITCRASESVDNYGISFMNWFQQKPGGAPKLLIYAASNQGSGVPSRFSGSGSGTDFTLTISSLQPDDFATYYCQQSKEVPWTFGQGTKVEIKR
# notes: Humanized IgG1/kappa, wild-type CH2; also called humanized anti-CD33 IgG1/kappa antibody; anti-CD33
# How the values were obtained:
# [1] = biological target: T4, recombinant human PD-L1 on the surface of NS0/PD-L1 cells (PD-L1-FLAG-GPI) (human, UniProt Q9NZQ7 19-238); assay: flow cytometry; blocking of the binding of FITC-labeled hPD-1-Fc to NS0/PD-L1 cells
# From the text: After washing with and suspending in FACS Buffer, cells were subjected to flow cytometry analysis.
# human GITR = biological target: T1, human GITR; assay: ELISA
# human PD-L1 = biological target: T5, human PD-L1 (human, UniProt Q9NZQ7 19-238, limits assumed); assay: ELISA
# T5 construct: also called B7H1; CD274
# [2] = biological target: human PD-L1 on PD-L1-expressing cells of human PBMC cultures (human, UniProt Q9NZQ7 19-290); assay: cell-based or functional assay
# [3] = biological target: T4, recombinant human PD-L1 on the surface …; assay: cell-based or functional assay
# [4] = biological target: T2, human OX40 on the cell surface (JD/OX40 …); assay: cell-based or functional assay
# [5] = biological target: T3, human GITR on the cell surface (JD/GITR …); assay: cell-based or functional assay
# [6] = biological target: CD40 on the surface of Ramos cells (human, UniProt P25942 21-277); assay: cell-based or functional assay
# [7] = biological target: CD33 on the surface of HL-60 cells (human, UniProt P20138 18-364); assay: cell-based or functional assay
# [8] = biological target: recombinant human CD33 on the surface of NS0/CD33 cells (CD33-FLAG-GPI) (human); assay: cell-based or functional assay
# [9] = biological target: T2, human OX40 on the cell surface (JD/OX40 …); assay: flow cytometry on JD/OX40 cells
# Chain of human PD-L1 on PD-L1-expressing cells of human PBMC cultures (Q9NZQ7 19-290 limits assumed): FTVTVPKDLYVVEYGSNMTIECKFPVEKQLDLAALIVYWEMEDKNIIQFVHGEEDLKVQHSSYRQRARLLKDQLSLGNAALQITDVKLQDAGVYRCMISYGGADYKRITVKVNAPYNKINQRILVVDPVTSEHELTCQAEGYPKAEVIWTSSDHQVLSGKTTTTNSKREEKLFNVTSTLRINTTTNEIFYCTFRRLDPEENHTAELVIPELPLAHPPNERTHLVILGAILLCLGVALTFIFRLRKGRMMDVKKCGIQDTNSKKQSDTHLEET
# T4 sequence (Q9NZQ7 other isoform, or with tags, fused parts or gaps limits assumed): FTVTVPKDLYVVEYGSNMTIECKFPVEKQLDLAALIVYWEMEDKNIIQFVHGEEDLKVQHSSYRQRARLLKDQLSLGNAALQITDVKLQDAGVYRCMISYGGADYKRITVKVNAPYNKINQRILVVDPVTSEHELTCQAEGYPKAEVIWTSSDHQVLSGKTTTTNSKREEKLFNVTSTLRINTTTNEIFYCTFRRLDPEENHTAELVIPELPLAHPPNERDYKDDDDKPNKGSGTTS
# Chain of CD40 on the surface of Ramos cells (P25942 21-277 limits assumed): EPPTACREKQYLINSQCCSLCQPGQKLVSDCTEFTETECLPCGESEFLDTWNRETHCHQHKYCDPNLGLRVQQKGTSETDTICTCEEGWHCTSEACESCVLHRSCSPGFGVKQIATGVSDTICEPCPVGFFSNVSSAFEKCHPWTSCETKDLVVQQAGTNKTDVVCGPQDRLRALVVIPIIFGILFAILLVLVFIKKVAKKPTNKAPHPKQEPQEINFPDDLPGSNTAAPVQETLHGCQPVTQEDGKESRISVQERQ
# Chain of CD33 on the surface of HL-60 cells (P20138 18-364 limits assumed): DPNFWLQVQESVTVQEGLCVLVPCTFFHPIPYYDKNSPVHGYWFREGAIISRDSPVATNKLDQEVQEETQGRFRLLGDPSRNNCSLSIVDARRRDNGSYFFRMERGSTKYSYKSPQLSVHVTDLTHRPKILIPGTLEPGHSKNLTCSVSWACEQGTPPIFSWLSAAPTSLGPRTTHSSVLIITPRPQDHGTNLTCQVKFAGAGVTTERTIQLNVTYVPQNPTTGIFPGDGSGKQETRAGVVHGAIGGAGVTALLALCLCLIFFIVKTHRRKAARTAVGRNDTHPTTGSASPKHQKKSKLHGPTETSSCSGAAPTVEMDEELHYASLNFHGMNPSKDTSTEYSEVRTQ
# T5 sequence (Q9NZQ7 19-238 limits assumed): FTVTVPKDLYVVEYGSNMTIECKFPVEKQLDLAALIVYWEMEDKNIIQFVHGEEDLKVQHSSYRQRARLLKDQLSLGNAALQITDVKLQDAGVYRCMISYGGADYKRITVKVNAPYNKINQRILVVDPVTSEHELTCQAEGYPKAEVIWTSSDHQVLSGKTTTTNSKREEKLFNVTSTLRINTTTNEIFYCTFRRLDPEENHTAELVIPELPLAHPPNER
# Chain of recombinant human CD33 on the surface of NS0/CD33 cells (CD33-FLAG-GPI) (human) (chain, as listed by the source limits assumed): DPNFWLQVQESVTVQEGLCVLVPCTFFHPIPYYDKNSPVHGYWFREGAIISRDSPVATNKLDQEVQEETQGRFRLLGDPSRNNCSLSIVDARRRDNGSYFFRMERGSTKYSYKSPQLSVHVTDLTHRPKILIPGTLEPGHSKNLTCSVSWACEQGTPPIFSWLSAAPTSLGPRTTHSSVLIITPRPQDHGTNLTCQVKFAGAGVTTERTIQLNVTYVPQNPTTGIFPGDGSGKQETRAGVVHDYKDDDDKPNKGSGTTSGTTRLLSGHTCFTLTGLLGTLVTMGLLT
binder,measurement,setting,value
B1,IC50,[1],0.087 µg/mL
B2,binding result,human GITR,binds
same,binding result,human PD-L1,binds
B3,"average IL-2 concentration in human PBMC-derived T cells (PHA-L-treated, OKT3-coated plate), 1 µg/ml antibody",[2],2200
same,"average IL-2 concentration, SEB-treated human PBMC, 1 µg/ml antibody",[2],17.7 ng/mL
same,"average relative luciferase unit (RLU) in JD/OX40 cells, 1 µg/ml antibody, with NS0/PD-L1 cells",[3],23700 RLU
same,"average IL-2 concentration in human PBMC-derived T cells (PHA-L-treated, OKT3-coated plate), 1 µg/ml antibody",[4],2200
same,"average IL-2 concentration, SEB-treated human PBMC, 1 µg/ml antibody",[4],17.7 ng/mL
same,"average relative luciferase unit (RLU) in JD/OX40 cells, 1 µg/ml antibody, with NS0/PD-L1 cells",[4],23700 RLU
B4,"average IL-2 concentration in PBMC-derived T cells of donor 4143, 1 µg/ml antibody",[2],4200 pg/mL
same,"average relative luciferase unit (RLU) in the culture supernatants of JD/GITR cells, 1 µg/ml antibody, with NS0/PD-L1 cells",[3],1.04e+06 RLU
same,"average IL-2 concentration in PBMC-derived T cells of donor 4143, 1 µg/ml antibody",[5],4200 pg/mL
same,"average relative luciferase unit (RLU) in the culture supernatants of JD/GITR cells, 1 µg/ml antibody, with NS0/PD-L1 cells",[5],1.04e+06 RLU
B5,"percentage of CD95-positive population among Ramos cells, 0.5 µg/ml antibody, in the presence of HL-60 cells",[6],0.7%
B6,IC50,[1],0.055 µg/mL
B7,"percentage of CD95-positive population among Ramos cells, 0.5 µg/ml antibody, in the presence of HL-60 cells",[7],58.4%
same,"percentage of CD95-positive population among Ramos cells, 0.5 µg/ml antibody, in the presence of HL-60 cells",[6],58.4%
B8,"average relative luciferase unit (RLU) in JD/OX40 cells, 1 µg/ml antibody, with NS0/CD33 cells",[8],21700 RLU
same,"average relative luciferase unit (RLU) in JD/OX40 cells, 1 µg/ml antibody, with NS0/CD33 cells",[4],21700 RLU
B9,"average relative luciferase unit (RLU) in JD/OX40 cells, 1 µg/ml antibody, with NS0/CD33 cells",[4],8700 RLU
same,"average relative luciferase unit (RLU) in JD/OX40 cells, 1 µg/ml antibody, with NS0/PD-L1 cells",[4],5920 RLU
B10,IC50,[1],0.106 µg/mL
same,"average IL-2 concentration in PBMC-derived T cells of donor 4143, 1 µg/ml antibody",[2],1450 pg/mL
B11,"average IL-2 concentration in human PBMC-derived T cells (PHA-L-treated, OKT3-coated plate), 1 µg/ml antibody",[2],1700
same,"average IL-2 concentration, SEB-treated human PBMC, 1 µg/ml antibody",[2],16.5 ng/mL
same,"average IL-2 concentration in human PBMC-derived T cells (PHA-L-treated, OKT3-coated plate), 1 µg/ml antibody",[4],1700
same,"average IL-2 concentration, SEB-treated human PBMC, 1 µg/ml antibody",[4],16.5 ng/mL
B12,binding result,[9],no binding
